Two molecules from PMC6570480, “PLK4 promotes centriole duplication by phosphorylating STIL to link the procentriole cartwheel to the microtubule wall” (eLife, 2019) can be followed below.

Assay [1] has as its target T1, Myc-GFP-Ana2 (WT) co-expressed with stabilized DmPLK4^SBM-mCherry (D. melanogaster, UniProt Q9XZ31 1-420, phosphorylated in cells by co-expressed DmPLK4^SBM-mCherry; phosphoserine at 38 (a DmPLK4 site by the cited work)).
T1 construct: Ana2, D. melanogaster; it rests on the S38A mutant; also called WT Ana2; phosphorylated Ana2; source: Drosophila S2 cells, transfected together with DmPLK4^SBM-mCherry, in lysate; not shown: Myc, N-terminal, kept; GFP, N-terminal, kept
T1 sequence (looked up): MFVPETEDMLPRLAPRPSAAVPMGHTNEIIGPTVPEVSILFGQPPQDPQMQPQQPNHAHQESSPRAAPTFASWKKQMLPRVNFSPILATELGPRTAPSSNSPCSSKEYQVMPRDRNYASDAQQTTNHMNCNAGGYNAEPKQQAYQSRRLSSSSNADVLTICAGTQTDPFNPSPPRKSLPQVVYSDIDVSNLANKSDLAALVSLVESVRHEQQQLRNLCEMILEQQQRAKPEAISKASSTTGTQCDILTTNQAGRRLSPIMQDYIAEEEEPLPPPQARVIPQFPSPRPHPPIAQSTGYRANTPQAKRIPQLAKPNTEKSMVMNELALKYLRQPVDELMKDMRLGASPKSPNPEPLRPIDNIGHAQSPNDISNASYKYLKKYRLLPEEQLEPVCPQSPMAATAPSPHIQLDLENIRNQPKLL
Kind of assay: co-IP; Drosophila S2 cells transfected with Myc-GFP-Ana2 and Flag-DmSas4 in the presence or absence of DmPLK4^SBM-mCherry; harvested 48 hr later; co-immunoprecipitation and immunoblot. Conditions: partners not purified.

The target in assay [2] is T2, Myc-GFP-STIL (wild type) phosphorylated in cells by co-expressed kinase active PLK4^Δ24-mCherry (human, UniProt Q15468 1-1287, phosphoserine at 428 and at 1116 (phosphorylated in cells by co-expressed kinase active PLK4^Δ24-mCherry; shown with pS428 and pS1116 antibodies)).
T2 construct: STIL, human; Further PLK4 sites may be phosphorylated (84 sites were found in vitro); also called WT STIL; phosphorylated STIL; source: HEK293FT, transfected together with kinase active PLK4^Δ24-mCherry, in lysate; not shown: Myc, N-terminal, kept; GFP, N-terminal, kept
T2 sequence (looked up): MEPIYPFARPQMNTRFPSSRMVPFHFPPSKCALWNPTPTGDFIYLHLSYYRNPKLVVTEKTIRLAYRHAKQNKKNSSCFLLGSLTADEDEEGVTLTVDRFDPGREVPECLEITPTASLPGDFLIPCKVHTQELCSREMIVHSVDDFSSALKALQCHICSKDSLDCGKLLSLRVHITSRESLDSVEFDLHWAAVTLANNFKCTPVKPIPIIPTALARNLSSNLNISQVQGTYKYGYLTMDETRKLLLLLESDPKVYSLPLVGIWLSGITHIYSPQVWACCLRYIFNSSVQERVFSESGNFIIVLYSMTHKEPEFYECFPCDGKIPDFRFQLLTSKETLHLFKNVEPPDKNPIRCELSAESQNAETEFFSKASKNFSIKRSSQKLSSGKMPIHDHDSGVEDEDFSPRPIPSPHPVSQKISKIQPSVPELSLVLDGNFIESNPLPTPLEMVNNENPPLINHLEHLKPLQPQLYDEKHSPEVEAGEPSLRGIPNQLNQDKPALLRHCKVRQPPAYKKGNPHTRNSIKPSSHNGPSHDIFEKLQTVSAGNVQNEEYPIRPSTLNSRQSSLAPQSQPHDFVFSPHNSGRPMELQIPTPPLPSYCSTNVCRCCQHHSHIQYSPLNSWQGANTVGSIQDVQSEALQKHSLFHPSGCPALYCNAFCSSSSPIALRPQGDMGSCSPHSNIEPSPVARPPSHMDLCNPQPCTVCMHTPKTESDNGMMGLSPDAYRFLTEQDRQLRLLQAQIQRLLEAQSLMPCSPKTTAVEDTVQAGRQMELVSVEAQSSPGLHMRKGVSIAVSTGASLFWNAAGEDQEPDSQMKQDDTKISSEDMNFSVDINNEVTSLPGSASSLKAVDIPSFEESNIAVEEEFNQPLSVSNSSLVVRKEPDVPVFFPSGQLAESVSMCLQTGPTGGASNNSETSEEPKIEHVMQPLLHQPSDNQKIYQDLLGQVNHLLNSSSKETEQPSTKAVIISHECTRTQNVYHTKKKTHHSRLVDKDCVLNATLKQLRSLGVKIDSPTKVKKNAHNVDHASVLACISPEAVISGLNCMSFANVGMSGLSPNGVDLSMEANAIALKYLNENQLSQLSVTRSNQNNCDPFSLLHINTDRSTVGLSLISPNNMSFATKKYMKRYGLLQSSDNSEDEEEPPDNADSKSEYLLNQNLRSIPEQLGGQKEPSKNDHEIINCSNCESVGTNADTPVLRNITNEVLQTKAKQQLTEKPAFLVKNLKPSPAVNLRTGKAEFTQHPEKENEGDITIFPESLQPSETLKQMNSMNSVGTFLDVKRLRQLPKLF
Kind of assay: co-IP; HEK293FT cells co-transfected, with kinase active or kinase dead PLK4^Δ24-mCherry where stated; lysis buffer 10 mM Tris pH 7.5, 0.1% Triton X-100, 250 mM NaCl, 1 mM EDTA, phosphatase inhibitors; Myc-GFP-STIL captured on beads coupled to GFP-binding protein; immunoblot. Conditions: partners not purified. In general terms: A western blot detects proteins with antibodies after separation by electrophoresis.

B1: Flag-DmSas4 (natural protein, D. melanogaster, UniProt Q9VI72 1-901, looked up)
chain: MQEAGESPVGMPLSQEAIAQRLAALSRWQDEQKRLLQERQSNHRVLLGLEQRNMYKMLGLLHQETESHENSVLEEWDEEHSIQMPRLAADPDEHEPEISMADPQPAKPKRPFLRRGEGLKQRFKINPDQLRLENLPRYKFANAHPQFRTPQMKKGILKKQVKSPPNPAPPPAPKPSAQLDDLNEQRFQQMLIGKNACSSTPDLKSSYASSTTASSTSPRVRFVEQKSRAGQTTHADDEASSEASPMTGVCWAKVLDTQSIKPAQIQRRSAQIRVEDDSNVSIFELLEQKATEGNIDMNSSCIRTFMARKDQRRRVADDSDHIVVTQQVRQMRLQPQVDQMLVQELQEGDEEDTEPSSDQTLTMTPIQVGNTKVRVRFSDSNDTHEYSDATSLNDGSNIQLFEQFKSALFQALEQKKKSSPSKESDEPITKDLQEKANLVRTRLEELETEIATFKEQNAQLLRLRQQHELEKAKCTQDHMEAMERVHDEKIQAEIYLHDERMKIEEERRKFEQQMRLQKSNANSKEKKEIAALKQEVEGLQLQLKQKEQAHVSAQARLRAQLRASEKEQRNYRDEIELLRKENKRLEQELVKIGRENNSKMLQEINRNIARLAPKVLPSATMSDILDENGRRTQSLDGTAGKPAKQREAQNRRQSSGSAQVRSRSRSLSRNKKTPYALDESYASSSSVESEEVQPPVTAPKAATPPPAANSSSDFKREITNADGSKDIWYPNGNLKKISADGMNLRMLYFNKDIKETNIREGTVKYYYAETNTWHTSYLDGLEILEFPNGQTEHRRKDGTVEIHFPNNSIKIVDPSDTEKLEEWRYADGTHLVQLRNGDKILNLPNGQKEIHTKLNKRREYPDGTVKLVYPDGSQETRYSNGRVRLKDKDGKLIMDTDYAKY
notes: Sas-4 (DmSas4), D. melanogaster; also called CPAP orthologue DmSas4; source: Drosophila S2 cells, transfected, in lysate; not shown: FLAG, N-terminal, kept
With B1, the “fold increase in the amount of DmSas4 bound, with against without DmPLK4^SBM” value in assay [1] was over 6 fold.

B2: FLAG-CPAP (natural protein, human, UniProt Q9HC77 1-1338, looked up)
chain: MFLMPTSSELNSGQNFLTQWMTNPSRAGVILNRGFPILEADKEKRAAVDISTSFPIKGTHFSDSFSFINEEDSLLEEQKLESNNPYKPQSDKSETHTAFPCIKKGPQVAACHSAPGHQEENKNDFIPDLASEFKEGAYKDPLFKKLEQLKEVQQKKQEQLKRQQLEQLQRLMEEQEKLLTMVSGQCTLPGLSLLPDDQSQKHRSPGNTTTGERATCCFPSYVYPDPTQEETYPSNILSHEQSNFCRTAHGDFVLTSKRASPNLFSEAQYQEAPVEKNNLKEENRNHPTGESILCWEKVTEQIQEANDKNLQKHDDSSEVANIEERPIKAAIGERKQTFEDYLEEQIQLEEQELKQKQLKEAEGPLPIKAKPKQPFLKRGEGLARFTNAKSKFQKGKESKLVTNQSTSEDQPLFKMDRQQLQRKTALKNKELCADNPILKKDSKARTKSGSVTLSQKPKMLKCSNRKSLSPSGLKIQTGKKCDGQFRDQIKFENKVTSNNKENVTECPKPCDTGCTGWNKTQGKDRLPLSTGPASRLAAKSPIRETMKESESSLDVSLQKKLETWEREKEKENLELDEFLFLEQAADEISFSSNSSFVLKILERDQQICKGHRMSSTPVKAVPQKTNPADPISHCNRSEDLDHTAREKESECEVAPKQLHSLSSADELREQPCKIRKAVQKSTSENQTEWNARDDEGVPNSDSSTDSEEQLDVTIKPSTEDRERGISSREDSPQVCDDKGPFKDTRTQEDKRRDVDLDLSDKDYSSDESIMESIKHKVSEPSRSSSLSLSKMDFDDERTWTDLEENLCNHDVVLGNESTYGTPQTCYPNNEIGILDKTIKRKIAPVKRGEDLSKSRRSRSPPTSELMMKFFPSLKPKPKSDSHLGNELKLNISQDQPPGDNARSQVLREKIIELETEIEKFKAENASLAKLRIERESALEKLRKEIADFEQQKAKELARIEEFKKEEMRKLQKERKVFEKYTTAARTFPDKKEREEIQTLKQQIADLREDLKRKETKWSSTHSRLRSQIQMLVRENTDLREEIKVMERFRLDAWKRAEAIESSLEVEKKDKLANTSVRFQNSQISSGTQVEKYKKNYLPMQGNPPRRSKSAPPRDLGNLDKGQAASPREPLEPLNFPDPEYKEEEEDQDIQGEISHPDGKVEKVYKNGCRVILFPNGTRKEVSADGKTITVTFFNGDVKQVMPDQRVIYYYAAAQTTHTTYPEGLEVLHFSSGQIEKHYPDGRKEITFPDQTVKNLFPDGQEESIFPDGTIVRVQRDGNKLIEFNNGQRELHTAQFKRREYPDGTVKTVYANGHQETKYRSGRIRVKDKEGNVLMDTEL
notes: CPAP (CENPJ), human; also called CENPJ; source: HEK293FT, transfected, in lysate; not shown: FLAG, N-terminal, kept
Turning to B2, the “fold increase in the amount of CPAP bound, kinase active against kinase inactive PLK4” value in assay [2] is over 7 fold.
